Experimental findings from paper doi:10.1101/2023.09.10.557050 (bioRxiv, 2023) are described below.

Like-named read-outs stand apart in the source and are kept apart here.

What all share (assay): cryo-EM structure
Data set [1] concerns the target T1, EcNhaA WT-like triple mutant (A109T, Q277G, L296M) (E. coli), P13738.
T1 chain: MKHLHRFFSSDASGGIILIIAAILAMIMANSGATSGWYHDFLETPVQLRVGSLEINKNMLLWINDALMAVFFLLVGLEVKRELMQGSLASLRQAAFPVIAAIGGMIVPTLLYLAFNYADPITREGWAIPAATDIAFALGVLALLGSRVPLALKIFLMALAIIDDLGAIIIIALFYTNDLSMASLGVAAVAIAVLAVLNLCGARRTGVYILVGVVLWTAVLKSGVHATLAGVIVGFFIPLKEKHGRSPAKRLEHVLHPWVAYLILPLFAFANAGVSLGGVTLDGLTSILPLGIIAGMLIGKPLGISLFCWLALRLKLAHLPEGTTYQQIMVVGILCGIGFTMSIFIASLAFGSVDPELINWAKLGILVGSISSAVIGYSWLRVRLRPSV
The settings on record: remark: other sources report otherwise.

Data set [2] deals with the molecule itself.
Data set [3] deals with the molecule itself. This is another data set of the same source.

B1: EcNhaA WT-like triple mutant (A109T, Q277G, L296M), P13738 1-388 (natural protein)
chain: MKHLHRFFSSDASGGIILIIAAILAMIMANSGATSGWYHDFLETPVQLRVGSLEINKNMLLWINDALMAVFFLLVGLEVKRELMQGSLASLRQAAFPVIAAIGGMIVPTLLYLAFNYADPITREGWAIPAATDIAFALGVLALLGSRVPLALKIFLMALAIIDDLGAIIIIALFYTNDLSMASLGVAAVAIAVLAVLNLCGARRTGVYILVGVVLWTAVLKSGVHATLAGVIVGFFIPLKEKHGRSPAKRLEHVLHPWVAYLILPLFAFANAGVSLGGVTLDGLTSILPLGIIAGMLIGKPLGISLFCWLALRLKLAHLPEGTTYQQIMVVGILCGIGFTMSIFIASLAFGSVDPELINWAKLGILVGSISSAVIGYSWLRVRLRPSV
Take B1: the stoichiometry N (commonly the number of molecules, sites or subunits per partner or assembly) in data set [1] stood at 2.

B2: horse NHE9* (residues 8 to 575), tag removed (domain or fragment, UniProt F7B113 8-575, looked up)
chain: MSEKDEYQFQHQGAVELLVFNFLLILTILTIWLFKNHRFRFLHETGGAMVYGLIMGLILRYATAPTDIESGTVYDCGKLAFSPSTLLINITDQVYEYKYKREISQHNINPHLGNAILEKMTFDPEIFFNVLLPPIIFHAGYSLKKRHFFQNLGSILTYAFLGTAISCIVIGLIMYGFVKAMVYAGQLKNGDFHFTDCLFFGSLMSATDPVTVLAIFHELHVDPDLYTLLFGESVLNDAVAIVLTYSISIYSPKENPNAFDAAAFFQSVGNFLGIFAGSFAMGSAYAVVTALLTKFTKLCEFPMLETGLFFLLSWSAFLSAEAAGLTGIVAVLFCGVTQAHYTYNNLSLDSKMRTKQLFEFMNFLAENVIFCYMGLALFTFQNHIFNALFILGAFLAIFVARACNIYPLSFLLNLGRKHKIPWNFQHMMMFSGLRGAIAFALAIRDTESQPKQMMFSTTLLLVFFTVWVFGGGTTPMLTWLQIRVGVDLDEDLKERPSSHQEANNLEKSTTKTESAWLFRMWYGFDHKYLKPILTHSGPPLTTTLPEWCGPISRLLTSPQAYGEQLKED
As to B2, in the data set “cryo-EM structure [2]”, the “stoichiometry N” value is 2.

B3: horse NHE9*CC (L139C-I444C double mutant), tag removed (domain or fragment, UniProt F7B113 8-575, looked up)
chain: MSEKDEYQFQHQGAVELLVFNFLLILTILTIWLFKNHRFRFLHETGGAMVYGLIMGLILRYATAPTDIESGTVYDCGKLAFSPSTLLINITDQVYEYKYKREISQHNINPHLGNAILEKMTFDPEIFFNVLCPPIIFHAGYSLKKRHFFQNLGSILTYAFLGTAISCIVIGLIMYGFVKAMVYAGQLKNGDFHFTDCLFFGSLMSATDPVTVLAIFHELHVDPDLYTLLFGESVLNDAVAIVLTYSISIYSPKENPNAFDAAAFFQSVGNFLGIFAGSFAMGSAYAVVTALLTKFTKLCEFPMLETGLFFLLSWSAFLSAEAAGLTGIVAVLFCGVTQAHYTYNNLSLDSKMRTKQLFEFMNFLAENVIFCYMGLALFTFQNHIFNALFILGAFLAIFVARACNIYPLSFLLNLGRKHKIPWNFQHMMMFSGLRGACAFALAIRDTESQPKQMMFSTTLLLVFFTVWVFGGGTTPMLTWLQIRVGVDLDEDLKERPSSHQEANNLEKSTTKTESAWLFRMWYGFDHKYLKPILTHSGPPLTTTLPEWCGPISRLLTSPQAYGEQLKED
Turning to B3, in “cryo-EM structure [3]”, the “stoichiometry N” value was found to be 2.
